Square brackets hold non-standard residues; d marks the D form. Ends that are not written are not given here. Nle = CCCC[C@H](N)C(=O)O; CoA = coenzyme A
T1: MBP-HishNAA80 fusion protein (MBP-Naa80) (human, UniProt Q93015-2 1-308)
T1 sequence (looked up): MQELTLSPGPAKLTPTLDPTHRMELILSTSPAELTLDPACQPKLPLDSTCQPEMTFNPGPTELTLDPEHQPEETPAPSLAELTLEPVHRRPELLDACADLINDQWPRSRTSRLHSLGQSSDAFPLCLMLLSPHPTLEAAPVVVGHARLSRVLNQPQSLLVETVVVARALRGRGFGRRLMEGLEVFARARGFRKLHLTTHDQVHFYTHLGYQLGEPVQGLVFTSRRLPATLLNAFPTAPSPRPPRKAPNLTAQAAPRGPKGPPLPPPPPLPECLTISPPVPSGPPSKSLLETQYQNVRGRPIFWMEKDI

T2: NatA complex (Naa15-Naa10) (human, UniProt P41227 1-235; Q9BXJ9 1-866)
T2 sequence (looked up) 1: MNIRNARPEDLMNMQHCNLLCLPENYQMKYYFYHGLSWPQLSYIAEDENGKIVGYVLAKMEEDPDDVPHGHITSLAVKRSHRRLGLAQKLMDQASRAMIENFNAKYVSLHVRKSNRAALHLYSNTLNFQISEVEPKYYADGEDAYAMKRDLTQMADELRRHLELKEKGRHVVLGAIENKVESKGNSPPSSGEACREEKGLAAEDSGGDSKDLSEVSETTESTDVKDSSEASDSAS
T2 sequence (looked up) 2: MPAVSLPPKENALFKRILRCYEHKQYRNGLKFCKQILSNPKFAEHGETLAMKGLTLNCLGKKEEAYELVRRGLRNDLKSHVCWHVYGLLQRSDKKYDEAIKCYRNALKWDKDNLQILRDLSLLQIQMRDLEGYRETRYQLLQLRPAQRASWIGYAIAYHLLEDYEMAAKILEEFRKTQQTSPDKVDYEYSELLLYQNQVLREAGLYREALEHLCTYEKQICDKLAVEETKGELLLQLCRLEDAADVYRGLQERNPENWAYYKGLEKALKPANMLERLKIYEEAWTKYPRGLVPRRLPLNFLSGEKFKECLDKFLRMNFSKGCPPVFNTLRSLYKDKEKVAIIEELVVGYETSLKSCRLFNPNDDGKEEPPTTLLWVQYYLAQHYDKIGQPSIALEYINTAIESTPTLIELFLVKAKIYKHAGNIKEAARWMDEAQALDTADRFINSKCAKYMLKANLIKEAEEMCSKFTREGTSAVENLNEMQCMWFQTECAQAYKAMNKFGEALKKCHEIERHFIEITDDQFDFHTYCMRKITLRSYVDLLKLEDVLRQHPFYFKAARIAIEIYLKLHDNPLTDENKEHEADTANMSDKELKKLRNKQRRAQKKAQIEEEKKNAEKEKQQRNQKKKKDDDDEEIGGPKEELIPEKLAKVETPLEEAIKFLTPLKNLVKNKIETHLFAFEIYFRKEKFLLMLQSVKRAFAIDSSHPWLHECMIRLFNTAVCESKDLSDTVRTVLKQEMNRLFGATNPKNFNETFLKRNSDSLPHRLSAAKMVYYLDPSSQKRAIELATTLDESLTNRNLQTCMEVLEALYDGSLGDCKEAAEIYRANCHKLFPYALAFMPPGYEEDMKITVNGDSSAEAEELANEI

B1: ESEL (Naa80 bisubstrate analogue inhibitor) (peptide)
peptide: {CoA-Ac}-ESEL-NH2
B2: DEEL (Naa80 bisubstrate analogue inhibitor) (peptide)
peptide: {CoA-Ac}-DEEL-NH2
B3: EDQL (Naa80 bisubstrate analogue inhibitor) (peptide)
peptide: {CoA-Ac}-EDQL-NH2
B4: EEDL (Naa80 bisubstrate analogue inhibitor) (peptide)
peptide: {CoA-Ac}-EEDL-NH2
B5: PDEL (Naa80 bisubstrate analogue inhibitor) (peptide)
peptide: {CoA-Ac}-PDEL-NH2
B6: DDEI (Naa80 bisubstrate analogue inhibitor) (peptide)
peptide: {CoA-Ac}-DDEI-NH2
B7: EEEL (Naa80 bisubstrate analogue inhibitor) (peptide)
peptide: {CoA-Ac}-EEEL-NH2
B8: DEDI (Naa80 bisubstrate analogue inhibitor) (peptide)
peptide: {CoA-Ac}-DEDI-NH2
B9: EDDI (Naa80 bisubstrate analogue inhibitor) (peptide)
peptide: {CoA-Ac}-EDDI-NH2
B10: EEDI (Naa80 bisubstrate analogue inhibitor) (peptide)
peptide: {CoA-Ac}-EEDI-NH2
B11: QEEI (Naa80 bisubstrate analogue inhibitor) (peptide)
peptide: {CoA-Ac}-QEEI-NH2
B12: CoA-Ac-EEEI-NH2 (peptide)
peptide: {CoA-Ac}-EEEI-NH2
B13: DEEI (Naa80 bisubstrate analogue inhibitor) (peptide)
peptide: {CoA-Ac}-DEEI-NH2
B14: EDEL (Naa80 bisubstrate analogue inhibitor) (peptide)
peptide: {CoA-Ac}-EDEL-NH2
B15: CoA-Ac-MDEL-NH2 (peptide)
peptide: {CoA-Ac}-MDEL-NH2
B16: EDEI (Naa80 bisubstrate analogue inhibitor) (peptide)
peptide: {CoA-Ac}-EDEI-NH2
B17: CoA-Ac-SSSE (peptide)
peptide: {CoA-Ac}-SSSE-NH2
B18: CoA-Ac-PS(Nle)P (peptide)
peptide: {CoA-Ac}-PS[Nle]P
modifications: not fully specified (C-terminus); printed as CoA-Ac-PS(Nle)P
B19: CoA-Ac-SSMP (peptide)
peptide: {CoA-Ac}-SSMP-NH2
B20: CoA-Ac-SESS (peptide)
peptide: {CoA-Ac}-SESS-NH2
B21: CoA-Ac-SSAE (peptide)
peptide: {CoA-Ac}-SSAE-NH2
B22: CoA-Ac-SYAE (peptide)
peptide: {CoA-Ac}-SYAE-NH2
B23: CoA-Ac-SSME (peptide)
peptide: {CoA-Ac}-SSME-NH2
B24: CoA-Ac-SASE (peptide)
peptide: {CoA-Ac}-SASE-NH2
B25: CoA-Ac-SSMPV (peptide)
peptide: {CoA-Ac}-SSMPV-NH2
B26: CoA-Ac-SAAE (peptide)
peptide: {CoA-Ac}-SAAE-NH2
B27: CoA-Ac-AASE (peptide)
peptide: {CoA-Ac}-AASE-NH2
B28: CoA-Ac-SSAA (peptide)
peptide: {CoA-Ac}-SSAA-NH2
B29: SESS24 (peptide)
peptide: SESSSKSRWGRPVGRRRRPVRVYP
B30: EEEI24 (peptide)
peptide: EEEIAALRWGRPVGRRRRPVRVYP
B31: MAPL24 (peptide)
peptide: MAPLDLDRWGRPVGRRRRPVRVYP
B32: AVFA24 (peptide)
peptide: AVFADLDRWGRPVGRRRRPVRVYP
B33: DDDI24 (peptide)
peptide: DDDIAALRWGRPVGRRRRPVRVYP
B34: MDEL24 (peptide)
peptide: MDELFPLRWGRPVGRRRRPVRVYP
B35: MTNK24 (peptide)
peptide: MTNKSSLRWGRPVGRRRRPVRVYP
B36: MLGP24 (peptide)
peptide: MLGPEGGRWGRPVGRRRRPVRVYP
B37: MKKS24 (peptide)
peptide: MKKSYSGRWGRPVGRRRRPVRVYP
B38: MELL24 (peptide)
peptide: MELLSPPRWGRPVGRRRRPVRVYP

What follows are binders tested against T1, MBP-HishNAA80 fusion protein (MBP-Naa80) (assay: cell-based or functional assay).

Row | Binder | IC50 (µM), Nt-acetylation inhibition [µM]
1 | B1 | 11.5
2 | B2 | 4.73
3 | B3 | 0.85
4 | B4 | 1.76
5 | B5 | 13.4
6 | B6 | 2.67
7 | B7 | 1.16
8 | B8 | 3.12
9 | B9 | 0.12
10 | B10 | 0.17
11 | B11 | 2.23
12 | B12 | 1.16
13 | B13 | 1.22
14 | B14 | 0.15
15 | B15 | 1.26
16 | B16 | 0.76

These binders were tested against T2, NatA complex (Naa15-Naa10) (assay: cell-based or functional assay).

Row | Binder | IC50 (µM), Nt-acetylation inhibition [µM]
17 | B17 | 9.47
18 | B18 | > 1000
19 | B19 | 0.82
20 | B20 | 15.4
21 | B21 | 4.7
22 | B22 | 36.2
23 | B23 | 1.28
24 | B24 | 62.4
25 | B25 | 2.1
26 | B26 | 12.1
27 | B27 | 247
28 | B28 | 5.3

Molecular target: T1, MBP-HishNAA80 fusion protein (MBP-Naa80)
Test: cell-based or functional assay
Remark: another data set of the same source

Row | Binder | Product formation [µM]
29 | B29 | 1.14
30 | B30 | 42.4
31 | B31 | 2.28
32 | B32 | -0.96
33 | B33 | 50.5
34 | B34 | 119
35 | B35 | -4.25
36 | B36 | 2.06
37 | B37 | 3.37
38 | B38 | 2.15

From patent US20200323888A1, “INHIBITORS” (VESTLANDETS INNOVASJONSSELSKAP AS, priority 2017, published 2020)
